Experimental findings from patent US20040146507A1 (Genentech, published 2004) are described below.

For test [1], the target named is T1, human CD11a (human, UniProt P20701 26-1170).
T1 construct: whole, on cells; On Jurkat T-cells or human peripheral blood mononuclear cells, as part of LFA-1; also called CD11a on Jurkat cells; alpha subunit of LFA-1
As to the kind of experiment: not stated (summary of the Example).

The target of test [2] is T1, human CD11a. The test is described as follows: saturation binding, human lymphocytes, donor 2; Kd(app). How it is done:
(§1) Radiolabeled antibodies were prepared using Iodo-Gen (Pierce, Rockford, Ill.) according to the manufacturer's instructions. 50 μg of antibody and 1 mCi¹²⁵I (DuPont, Wilmington, Del.) were added to each tube and incubated for 15 min at 25° C. Radiolabeled proteins were purified from the remaining free ¹²⁵I using PD-10 columns (Pharmacia, Uppsala, Sweden) equilibrated in Hank's Balanced Salt Solution (HBSS, Life Technologies, Grand Island, N.Y.) containing 0.2% gelatin.
(§2) Antibody affinities were determined by saturation binding using either peripheral blood mononuclear cells (murine MHM24 and HuIgG1) or rhesus leukocytes (MHM23, RhIgG1). In each assay, a radiolabeled antibody was serially diluted in HBSS-0.2% gelatin in quadruplicate. Nonspecific binding was determined by the addition of 500 nM final concentration of homologous unlabeled antibody in duplicate through the serial dilution. Human lymphocytes or rhesus leukocytes were added to the plates in a volume of 170 μl per well. Plates were incubated for 2 hr at room temperature on an orbital plate shaker. After incubation, cells were harvested using a SKATRON™ cell harvester (Lier, Norway) and washed 10 times with PBS containing 0.25% gelatin and 0.1% sodium azide. Samples were then counted for 1 min in an LBK Wallac GammaMaster gamma counter (Gaithersburg, Md.). […]

Test [3] concerns the target T1, human CD11a. The test is described as follows: saturation binding, human lymphocytes, donor 1; Kd(app). How it is done: as §1, §2
Test [4] has as its target T2, rhesus CD11a (rhesus, UniProt H9Z8N3 26-1169).
T2 construct: whole, on cells; On rhesus peripheral blood lymphocytes or leukocytes; also called rhCD11a
T2 sequence: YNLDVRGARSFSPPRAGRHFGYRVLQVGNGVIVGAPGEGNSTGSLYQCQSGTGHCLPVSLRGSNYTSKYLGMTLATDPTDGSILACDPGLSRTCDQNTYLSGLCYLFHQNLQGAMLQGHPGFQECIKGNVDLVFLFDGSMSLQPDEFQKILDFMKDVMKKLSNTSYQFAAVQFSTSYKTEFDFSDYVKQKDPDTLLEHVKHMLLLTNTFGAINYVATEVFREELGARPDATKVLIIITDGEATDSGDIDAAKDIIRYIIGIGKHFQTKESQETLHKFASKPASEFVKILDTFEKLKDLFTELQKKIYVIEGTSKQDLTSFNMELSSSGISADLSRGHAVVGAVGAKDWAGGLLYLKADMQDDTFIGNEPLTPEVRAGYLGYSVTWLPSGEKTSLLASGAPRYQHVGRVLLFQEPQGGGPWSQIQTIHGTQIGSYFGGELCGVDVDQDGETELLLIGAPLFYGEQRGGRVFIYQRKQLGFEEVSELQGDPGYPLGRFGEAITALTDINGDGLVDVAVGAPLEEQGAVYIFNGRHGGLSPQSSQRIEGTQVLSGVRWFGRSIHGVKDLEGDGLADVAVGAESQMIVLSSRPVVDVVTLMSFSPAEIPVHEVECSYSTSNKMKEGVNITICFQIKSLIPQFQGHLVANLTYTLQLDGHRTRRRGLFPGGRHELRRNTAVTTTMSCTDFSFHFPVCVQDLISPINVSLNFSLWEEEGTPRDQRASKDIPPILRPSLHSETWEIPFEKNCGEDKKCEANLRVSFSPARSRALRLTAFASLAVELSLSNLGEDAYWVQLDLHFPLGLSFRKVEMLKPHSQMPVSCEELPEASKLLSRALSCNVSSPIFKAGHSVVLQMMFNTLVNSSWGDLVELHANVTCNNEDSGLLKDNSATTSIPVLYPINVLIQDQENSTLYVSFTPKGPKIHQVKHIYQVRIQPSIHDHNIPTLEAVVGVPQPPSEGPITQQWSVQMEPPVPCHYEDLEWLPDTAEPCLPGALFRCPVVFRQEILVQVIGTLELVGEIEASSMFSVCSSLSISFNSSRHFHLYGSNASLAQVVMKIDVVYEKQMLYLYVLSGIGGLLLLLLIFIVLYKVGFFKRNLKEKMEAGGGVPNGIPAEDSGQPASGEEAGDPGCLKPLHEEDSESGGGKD
As to the kind of experiment: rhesus PBL binding.

Test [5] has as its target T1, human CD11a. The test is described as follows: cell-based or functional assay.
The target in test [6] is T1, human CD11a. The test is described as follows: FACScan, Jurkat cells. How it is done:
(§3) Aliquots of 10⁶ Jurkat T-cells were incubated with serial dilutions of humanized and control antibodies in PBS-0.1% BSA-10 mM sodium azide for 45 min at 4° C. The cells were washed and then incubated in fluorescein-conjugated goat anti-human F(ab′)₂ (Organon Teknika, Westchester, Pa.) for 45 min at 4° C. Cells were washed and analysed on a FACScan (Becton Dickinson, Mountain View, Calif.). 8×10³ cells were acquired by list mode and gated by forward light scatter versus side light scatter, thereby excluding dead cells and debris.
Target sequence in this assay (P20701 26-1170): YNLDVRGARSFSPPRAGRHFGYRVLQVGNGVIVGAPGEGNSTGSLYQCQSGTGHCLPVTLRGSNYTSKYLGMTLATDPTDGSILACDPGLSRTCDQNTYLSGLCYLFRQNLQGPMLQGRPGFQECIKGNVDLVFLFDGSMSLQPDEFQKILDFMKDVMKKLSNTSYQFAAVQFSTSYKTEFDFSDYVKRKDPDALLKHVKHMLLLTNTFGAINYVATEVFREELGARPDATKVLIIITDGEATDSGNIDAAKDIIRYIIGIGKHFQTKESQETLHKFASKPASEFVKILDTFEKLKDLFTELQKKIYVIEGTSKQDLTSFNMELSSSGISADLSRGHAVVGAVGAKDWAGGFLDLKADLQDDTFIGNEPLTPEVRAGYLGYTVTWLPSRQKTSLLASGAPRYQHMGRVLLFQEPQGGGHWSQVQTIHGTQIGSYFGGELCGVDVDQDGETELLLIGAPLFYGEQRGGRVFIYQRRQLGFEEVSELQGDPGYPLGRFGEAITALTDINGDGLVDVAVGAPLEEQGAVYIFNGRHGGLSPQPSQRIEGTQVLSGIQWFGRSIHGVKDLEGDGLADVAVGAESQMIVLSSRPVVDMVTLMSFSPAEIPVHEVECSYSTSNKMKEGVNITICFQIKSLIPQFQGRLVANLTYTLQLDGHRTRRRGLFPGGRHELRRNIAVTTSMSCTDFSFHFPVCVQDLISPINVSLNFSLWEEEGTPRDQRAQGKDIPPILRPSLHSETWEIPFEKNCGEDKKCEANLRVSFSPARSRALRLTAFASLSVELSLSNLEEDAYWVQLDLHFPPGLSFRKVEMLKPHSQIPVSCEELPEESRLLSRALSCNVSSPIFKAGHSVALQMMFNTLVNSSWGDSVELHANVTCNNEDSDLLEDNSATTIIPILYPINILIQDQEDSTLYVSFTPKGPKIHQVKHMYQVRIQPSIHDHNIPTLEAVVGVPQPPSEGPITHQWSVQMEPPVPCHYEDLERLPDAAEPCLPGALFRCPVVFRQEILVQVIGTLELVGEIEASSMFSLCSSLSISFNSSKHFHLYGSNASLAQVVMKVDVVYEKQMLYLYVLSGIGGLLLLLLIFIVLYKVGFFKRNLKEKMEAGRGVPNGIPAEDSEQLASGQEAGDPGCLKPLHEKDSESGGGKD

Test [7] addresses T2, rhesus CD11a. As to the kind of experiment: binding to rhesus peripheral blood lymphocytes.
In test [8] the target is T2, rhesus CD11a. The test is described as follows: binding to rhesus CD11a compared with human CD11a.
Test [9] addresses T1, human CD11a. The test is described as follows: cell-based or functional assay. The source holds these as a separate data set.
The target of test [10] is T1, human CD11a. The test is described as follows: FACScan, Jurkat cells. The protocol: as §3
To determine which CDR residues were involved in binding to human CD11a an alanine-scan (Cunningham et al., Science 244:1081 (1989)) was performed on the CDR residues of HuIgG1. Each mutant was tested for binding to CD11a on Jurkat cells. In the light chain only CDR-L3 contributes to binding.
This is another data set of the same source.

The target of test [11] is T1, human CD11a. The test is described as follows: saturation binding, 125I-antibody, human lymphocytes; Kd(app). How it is done: as §1, §2
The target in test [12] is T1, human CD11a. The test is described as follows: FACScan, Jurkat cells. A digest of the protocol:
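Flow-cytometric binding to 10⁶ Jurkat T-cells with serially diluted humanized antibodies (including CDR alanine-scan mutants of HuIgG1), 45 min at 4 °C in PBS-0.1% BSA-10 mM sodium azide. Detected with fluorescein anti-human F(ab′)₂, 45 min at 4 °C; 8×10³ scatter-gated live cells acquired.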
The source holds these as a separate data set.

B1: humanized MHM24 IgG1 (antibody, V domains shown)
VH: EVQLVESGGGLVQPGGSLRLSCAASGYSFTGHWMNWVRQAPGKGLEWVGMIHPSDSETRYNQKFKDRFTISVDKSKNTLYLQMNSLRAEDTAVYYCARGIYFYGTTYFDYWGQGTLVTVSS
VL: DIQMTQSPSSLSASVGDRVTITCRASKTISKYLAWYQQKPGKAPKLLIYSGSTLQSGVPSRFSGSGSGTDFTLTISSLQPEDFATYYCQQHNEYPLTFGQGTKVEIKR
notes: F(ab)-8 VL and VH domains fused to human constant light and heavy (IgG1) chains; also called HuIgG1; huMHM24
Take B1: the Kd with human CD11a [1] came to 0.2 nM; in the test with human CD11a [2], 0.18 nM; in the test with human CD11a [3] it was 0.11 nM; with human CD11a [11], 0.15 nM. For the same molecule, the “Var.EC50/HuIgG1 EC50” value in the test with rhesus CD11a [4] and in the test with human CD11a [10] was 1 ratio in each case. Also, the “IC50, human mixed lymphocyte response” value with human CD11a [5] stood at 0.38 nM. The “EC50 F(ab)/EC50 F(ab)-2” value in the test with human CD11a [6] was found to be 0.004 ratio. Moreover, the EC50 with rhesus CD11a [7] worked out at 45.6 nM; in the test with human CD11a [12], 0.042 nM. In addition, the “fold reduction in binding against human CD11a” value with rhesus CD11a [8] is around 1000 fold. In the test with human CD11a [9], the “IC50, blocking of cell adhesion, Jurkat: HuK” value came out at 0.13 nM.
